Measured values as given in the DeepSol protein solubility set.

Experiment: soluble on expression in E. coli; label from the status in PepcDB or PDB records

Row | Sequence | soluble on expression in E. coli
1 | MNSSESSSNSEVSSSKTRTVKHAMGTSDNIPANPKRIVVLTNEGTEALLALGIKPVGAVKSWKGDPWYDYLKDDMKGVKNVGLETEPNVEAIAELKPDLIIGNKVRQEKIYDQLNAIAPTVFAESLAGNWKDNLTLYANAVNKADKGKEVIADFDKRVSDLKNKLGDQTNKTVSVVRFLSGESRIYYTDSFPGIILDQLGFKRPEKQVELFKKQKDQFTFSTDSKESIPDMDADVLFYFTYKADNAKENEKWANQWTSSSLWKNLKAVKSGNAHEVDDVVWTTAGGIKAANYLLDDIETYFLKTKLEHHHHHH | not soluble
2 | MNTCPLCHSTDLVAYHHDKRRPYQQCQRCALVSVPAEFYLSRDEEKAEYDKHENHPQDLGYQQFLDRTLAPLLARFESTALGLDFGCGEGKALSLMAQARGYRVENYDLYYANHPELLTRQYDFITLTEVIEHVSDADALLTQLKGMLKPKGILAVMTKRVLNPTAFSTWHYKNDPTHINFYAEATFQWLAEHYGWRLEVIDKDVVFLYQANLEHHHHHH | soluble
3 | MNTDAIESMVRDVLSRMNSLQGEAPAAAPAAGGASRSARVSDYPLANKHPEWVKTATNKTLDDFTLENVLSNKVTAQDMRITPETLRLQASIAKDAGRDRLAMNFERAAELTAVPDDRILEIYNALRPYRSTKEELLAIADDLESRYQAKICAAFVREAATLYVERKKLKGDD | soluble
4 | MNTFKETLFSLKKSNYLLNESAQILNDCVVNNNEIDERLRNSIKFALGIINLASYCLKNEQEQLDHELNHGNEAPWEFSFNEAEQLIECTVKNNFGNEKLVDLIFHIGDAMETYRTTNIKFRVPKSYYDAKQQIRKVIKN | soluble
5 | MNTLGLYQSDWSKAPPHAHAYHVKTTREQGHYHLIEGFTQPANGSNTDQHTHYYTGITSFENGHFHRYYGISGPAIPLADGTHYHEIEETTYLAYNEPIEIQYGGVVYDPGDDRRKTHRHTLKGKTREIVGNEPLGR | soluble
6 | MNTMKNVTKRSFQTIAIVGKPRHDNALETHLAVYNWLKDRHYSVLVEEKIAEQLQLPNGKRIEEIGQIADLVIVIGGDGNMLGMARSLAKYQVPLIGINRGNLGFLTDIAPQSAFEQLYSCLEKGEFIIEQRFLLEAQIEQNGKIISANNALNEVAIHPTQVARIIEFEVYIDSKFAFSQRSDGLIIATPTGSTAYSLSAGGPILTPNMNAIALVPMHPHALSSRPLVIDGDSHISLRFAQYNQPNLEISCDGQDDLPFTPEDRIIVRKSPDILHLLHLKDYNYFTVLGSKLGWSSKLF | soluble
7 | MNTSTTKPFAWPAHVFKEYDIRGRAGEELDESFAYWLGRAFADMMQKEGEKRAVVGHDNRLSSPGLHRALKDGLLDGGCDVVDIGLSTTPMFYYSLYYTNIPCGMIITASHNPGDENGFKIAMGKTTIYGERIQALRRAMERLSQEQPRPETARGREETLDLAPAYIKMLKEKIQLGPRKLKVVVDCGNGTPSIIAPQVLKEWGCDVVPLYCESDPTFPNHHPDPVVPENLTALIEMVRKEQADLGIAFDGDGDRIGVVDETGAIRWGDQLMVLFWREILKRYPGADAPVEVKCSQALVEEIERLGGKPFFHRTGHSHVKATLRRRPEIPFAGEMSGHLFFNDEFYGYDDALYAAGRLLRLLSHDERPLSEWFADVPRYAATPETRVACPEEKKPAAIAAVKNQFAGRYPVVDVDGARIQFPEGWGLVRPSNTQPILVLRAEAKTEEALAEIKRQLADCLHALELCIDW | soluble
8 | MNTVLIPPGPGGYGKGLWLPVGSGKKVLSLTGREIHPVAIEIGALTQSEVVNGFADIPPDNDILCVVINCAGSLRCGLYPQKGIPTINVLPTWRAGPLAQFITEENYVSGVTMEQLVLVDTAEAPDGKPETTQEPAPRVISTPPSPRGAEKLVRMVEQTGTAVGHVIALLFAASREAVDVSLRN | not soluble
9 | MNVAAILLAAGKSQRMGLCKQLLQLADRPAVAHCLDTLTAVGLQEIIVVVSPGGDEVAAAVSRYPVVVAVNESDSCDMADSARTGLARLISDPTGVLVALADHPLVRPDTVRALVNRHGEEPDAILIPVHDGAKGHPTLFPAAILQEIGQVATLRDIIGRHRDKVRLVPVADEGVVMDMDVWEDYLAMAERLNPPGLEHHHHHH | soluble
10 | MNVAKNRKEKIAGLFLMCPGSGLDMNFVNTIQPGALQYLMKKGSINYPASKNGYPALLTVECLEEFLNTDISKTSPKVIDIQCPVLTVHGIEDNIVPVENSKKLMQRMASTYKDFHRIPGVDHNFDLDEEVLKRLGQLMDVIRENESKKLKAKI | not soluble
11 | MNVANNNCGQMLSDSSESSEPPRAQAGAVFGKKDKGKKADTKKKNTATEGSKRVKKEKKKDDGEAAKGDPTNKTNMTPAPPQTHPIVEQWVLRALDVGVDKLREEFRGLAKYTRPDMTQVMFNANQSPDIAITKNRYQDVPCQDQSAVKLDQPSPCNYIHANYVGCPMIPEKRFICAQGPLDQTIDEFWWMVIQNKVEQIVMLCKTVEMGKLKCAQYWPAAQGEKLTLKSGCVVENVSGSKPMERDPEIQITMLNLTYSGGQTMSVRHLQWTEWPDRGVPPCKLTSLELLSAIRGSKVPIVVHCSAGIGRTGTIVAIEYILEKIAENKPCPPMPELVKALRDQRAFSIQNDVQYLFIHRVMLNYFLEKYKEKYAALLTAENVAKYDKFIKDYNAAVGQ | not soluble
12 | MNVIEVEDVSFRYGNSREYSLRHINLEIRKGEFLGIIGPSGSGKSTFCLTLNGLIPHSIAGEFHGNVIVDGLNTREHSVSELSTKVGLVFQNPDSQLFNMTVLEEVAFALENLGIERDEMWRRIRWALKLVRLWDKREEFPPNLSGGEKQRLAIASVLVMKPKVLVLDEPTSQLDPLGREEVLGLIKLLNKEEKITIILVEHNTDFLLEHADRIVVFDKGRIVLEGKPEDVFENVEFLRTIGVKLPTRVKIGYELKKRGLVERAVLTRDEVVEVLKWAYLRGKS | soluble
13 | MNVKPLQAKDVAEKVLFGELFILDVRNEADYEDWKIEGKQVSSINKPYFDLLDGVDHIVSELPKDKDVLVVCAKEGSSIFVAEQLTEAGLQNIYYLAGGMKAWSEYVKPIKVGNLKDGGSMYQFNRLGKGCLSYMVISNGEAAVIDAVRTAEAYEEFAKEHGVTIKNVMDTHLHADHISGGRKLAEKVGGTYWLPPKDAEEVVFSYEPLVEGSVITVGGTKIEIDALYSPGHTIGSTSFIVDDSYLLSGDILFVDSIGRPDLAGKAEDWVSDLRNTLYSRYKELSQNLVVLPAHYSKVSEMNESGIVSAKLKDLFANNAGLNIEDEGEFRKVVTENLPPQPNAYEEIRQTNMGKIHPSVDKEREMEIGPNRCAVHE | not soluble
14 | MNVMTEKKKLVVWVPLPPNSSWRGEGIAQTIENIVRNISPERKIEIVVSSKHAEMLVGLEKSNPNISVLTLGFRGKSTKKTIGYVSLNEVEKDSLWDLVIAKLPIIPAIFRKVGMYVSQLEYLLSLYIYSHLQRRGRFSSNNCRVWLPTPIIPYTHLLGGEKFVSFWDPFVFEYNKEFPLTAEYFVKKLSKHFSNASAIITQSRANKDYLETVMGIESSKINVIYNGSPDYSEFKKQQSNLSFSEVWSKSEFSGASKKAAFEALVNHQLNFSVLWRLLTKNKVSNRKIVLISTQNRPYKGFDQLFVLINELCLRRDNYDFIFTCNVPTKLKERYPSLYERIHEVTRVDNYLHASLYLMSDIVLHPSNVEGGLGAYPQYEASSVGKPSLINTGRHVNEMAEEGFDVDLLSSNFVNTKETVDKIEKLINSEEYMRQNIDAINRLKISWKESASNYENVFFGNENA | not soluble
15 | MNVPFWTEEHVRATLPERDAESHKGTYGTALLLAGSDDMPGAALLAGLGAMRSGLGKLVIGTSENVIPLIVPVLPEATYWRDGWKKAADAQLEETYRAIAIGPGLPQTESVQQAVDHVLTADCPVILDAGALAKRTYPKREGPVILTPHPGEFFRMTGVPVNELQKKRAEYAKEWAAQLQTVIVLKGNQTVIAFPDGDCWLNPTGNGALAKGGTGDTLTGMILGMLCCHEDPKHAVLNAVYLHGACAELWTDEHSAHTLLAHELSDILPRVWKRFELEHHHHHH | soluble
16 | MNVPGAAPFLTAQSEEEATEVLESIHPDPEKSGARYIMSDERMAVDIFMAMPEWTLDTEGYMQPYWTGDGYQYLPSKRYFDSMESRLHFLDGNGLKQYRLVYETWAYQTQEAGYKQVYNFLYGSSIPEVDSGYVKIFEYVKGAKITGTVSPNETVNINTTILTGQGRTFELEHHHHHH | soluble
17 | MNVRDLSFKLNSIFDINKYEHIDKNLNGLQVGNINAKVNKVAFAVDASFSTLKEAKGNDFLITHHGIFWSKKERIVSNMYDKTKFLIENNLALYSVHLPMDAHSVYSHSKVFSDFLGLKNSFAFANYGGVNLGIIADSVFSFSEILEKIKKENKHILFSKKFKESVNKVAIVSGSGYSFFEEALCHDVDLFITGDTSHQIYSLAEEFGVNLIFAGHYFTETFGLIKLMEDFKIQEDLEVKFICKNTNLLEHHHHHH | not soluble
18 | MNVRVLVVEDERDLADLITEALKKEMFTVDVCYDGEEGMYMALNEPFDVVILDIMLPVHDGWEILKSMRESGVNTPVLMLTALSDVEYRVKGLNMGADDYLPKPFDLRELIARVRALIRRKSESKSTKLVCGDLILDTATKKAYRGSKEIDLTKKEYQILEYLVMNKNRVVTKEELQEHLWSFDDEVFSDVLRSHIKNLRKKVDKGFKKKIIHTVRGIGYVARDE | soluble
19 | MNVSIKNTDAVNAIATVAIEKADYANEVEKALRTYRQRANVPGFRKGMVPMGMIKKMYGKGVKAEEINRVVGRELYRYIAENKLNVLGEPMPNEELQKEYDFDTTDDFEFVFDLALSPVVDVVVDKSIRVPYYTIQPTEEMIDRQIESMRSSYGHSVEADEVTANDVVKGRLCELEDGQPKEGGICVEEAMLLPAYMKDEEEKNKFVGAAKNSVVVFNPSKAYNNNEYELSSLLKVDKSAIGEHTGDFSFEISSISRHEKAELNEEFFKQAFGEETDIKNEADLRVKVTEGVREQFTAESDYKFLIDLRRELEAQVGELQFPDALLKRWLKLSHTEWSDEELEKQYPAMIKDLTFHVIKEDLVKKNDIVVTPQEVRNFAIIVAKNQFAQYGMSAVPQDALERYANTMMEKEDARRNFFDRVTENKLAAALKEKLDIDAKTVSPDEFNKLMTEQPASAE | not soluble
20 | MNVYHYETSGGKDLILEYIDGLPKNEKAEGLTILEKLEKEGLEALEVLNTRQLRGKLWEIKFYRSNRIMYVVADEDNIYLVHACKKQKGKAEKFELDTAIKRVKELEKELGKKFI | not soluble
21 | MNYELLTTENAPVKMWTKGVPVEADARQQLINTAKMPFIFKHIAVMPDVHLGKGSTIGSVIPTKGAIIPAAVGVDIGCGMNALRTALTAADLPENLAELRQAIETAVPHGRTTGRCKRDKGAWENPPFNVDAKWAELEAGYQWLTQKYPRFLNTNNYKHLGTLGTGNHFIEICLDESEQVWIMLHSGSRGIGNAIGTYFIDLAQKEMQDQLETLPSRDLAYFMEGTEYFDDYLRAVAWAQLFASLNRDAMMENVVTALQSITQKTVRQPQTLAMEEINCHHNYVQKEQLFGEEIYVTRKGAVSARAGQYGIIPGSMGAKSFIVRGLGNEESFCSCSHGAGRVMSRTKAKKLFSVEDQIRATAHVECRKDAEVIDEIPMAYKDIDAVMAAQSDLVEVIYTLRQVVCVKGLEHHHHHH | soluble
22 | MNYNSKMEPLAIPEYGRNIQNMVNYCMTIGDRDERNRCAQTIITIMGNMFPERRENSETKHILWDHLAIMSGFKLDIDYPMEIISPELLERKPKAVSYSANDIVYRHYGHLIQEMILKACAMEQGEERYALELLIANQMKRSYLTWNKDTVDDYKIFKDLYELSEGRIELTEESCHLTIPNASDRKDNNNTKRNKVFRRK | not soluble
23 | MNYWLMKSEPDEFSIEDLKARPNQTEPWFGIRNYQARNYMRDAMQIGDKVFFYHSSCKVPGIVGIAEVVTNAYPDSTAFDPESTYFDPKSDPSNPRWLRVDIRFVEQFKEIIPLSLIKSLPQLADMYLVSKGSRLSIQPVTAEQWQAVLMLSRLEHHHHHH | soluble
